Key:
Assay in all cases: two-hybrid library CCmax;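 note: natural log of median RNA to DNA barcode read ratio; higher means stronger binding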
P2-AA = molecular target: T1, P2-AA; conditions: mean of both orientations
T1 chain: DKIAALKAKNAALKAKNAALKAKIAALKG

GCN2_T = molecular target: GCN2_T
4H535-AA = molecular target: T2, 4H535-AA; conditions: mean of both orientations
T2 chain: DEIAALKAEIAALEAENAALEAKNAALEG

P2-AA-1HGe-H = molecular target: T3, P2-AA-1HGe-H; conditions: mean of both orientations
T3 chain: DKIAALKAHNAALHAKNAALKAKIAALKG

P2-AA-1HGe-Q = molecular target: T4, P2-AA-1HGe-Q; conditions: mean of both orientations
T4 chain: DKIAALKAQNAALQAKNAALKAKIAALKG

4H58-AA = molecular target: T5, 4H58-AA; conditions: mean of both orientations
T5 chain: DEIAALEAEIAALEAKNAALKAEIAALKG

4H895-AA = molecular target: T6, 4H895-AA; conditions: mean of both orientations
T6 chain: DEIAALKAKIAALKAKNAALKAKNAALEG

P2-AA-1HGe-D = molecular target: T7, P2-AA-1HGe-D; conditions: mean of both orientations
T7 chain: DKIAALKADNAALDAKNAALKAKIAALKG

4H465-AA = molecular target: T8, 4H465-AA
T8 chain: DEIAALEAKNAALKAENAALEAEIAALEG

4H_BCR = molecular target: T9, 4H_BCR; conditions: mean of both orientations
T9 chain: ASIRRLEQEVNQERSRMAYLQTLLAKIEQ

4H_APH = molecular target: T10, 4H_APH
T10 chain: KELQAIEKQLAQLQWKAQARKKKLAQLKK

4H_GCN4 = molecular target: 4H_GCN4
P2-AA-1HGe-A = molecular target: T11, P2-AA-1HGe-A; conditions: mean of both orientations
T11 chain: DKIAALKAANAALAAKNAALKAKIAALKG

4H486-AA = molecular target: T12, 4H486-AA; conditions: mean of both orientations
T12 chain: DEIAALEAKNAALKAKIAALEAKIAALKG

P2-AA-1HGe-T = molecular target: T13, P2-AA-1HGe-T; conditions: mean of both orientations
T13 chain: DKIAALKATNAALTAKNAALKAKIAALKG

P2-AA-1HGe-M = molecular target: T14, P2-AA-1HGe-M; conditions: mean of both orientations
T14 chain: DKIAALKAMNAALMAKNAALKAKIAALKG

APC4011-AA = molecular target: T15, APC4011-AA; conditions: mean of both orientations
T15 chain: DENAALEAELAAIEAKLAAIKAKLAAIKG

4H2290-AA = molecular target: T16, 4H2290-AA; conditions: mean of both orientations
T16 chain: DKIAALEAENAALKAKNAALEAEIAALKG

APC2237-AA = molecular target: T17, APC2237-AA; conditions: mean of both orientations
T17 chain: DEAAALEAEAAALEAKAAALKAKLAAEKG

APC5383-AA = molecular target: T18, APC5383-AA; conditions: mean of both orientations
T18 chain: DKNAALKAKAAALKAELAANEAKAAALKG

APC4436-AA = molecular target: T19, APC4436-AA; conditions: mean of both orientations
T19 chain: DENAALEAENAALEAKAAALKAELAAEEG

4H2458-AA = molecular target: T20, 4H2458-AA; conditions: mean of both orientations
T20 chain: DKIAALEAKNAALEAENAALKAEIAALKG

APC8191-AA = molecular target: T21, APC8191-AA; conditions: mean of both orientations
T21 chain: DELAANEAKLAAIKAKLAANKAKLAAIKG

APC1434-AA = molecular target: T22, APC1434-AA; conditions: mean of both orientations
T22 chain: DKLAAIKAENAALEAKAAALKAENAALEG

APC7099-AA = molecular target: T23, APC7099-AA; conditions: mean of both orientations
T23 chain: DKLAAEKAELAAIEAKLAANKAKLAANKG

4H733-AA = molecular target: T24, 4H733-AA; conditions: mean of both orientations
T24 chain: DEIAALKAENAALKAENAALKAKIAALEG

4H2148-AA = molecular target: T25, 4H2148-AA; conditions: mean of both orientations
T25 chain: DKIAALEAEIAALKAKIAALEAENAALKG

4H3330-AA = molecular target: T26, 4H3330-AA; conditions: mean of both orientations
T26 chain: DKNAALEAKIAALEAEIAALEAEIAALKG

APC9096-AA = molecular target: T27, APC9096-AA; conditions: mean of both orientations
T27 chain: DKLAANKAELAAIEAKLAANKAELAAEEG

4H716-AA = molecular target: T28, 4H716-AA; conditions: mean of both orientations
T28 chain: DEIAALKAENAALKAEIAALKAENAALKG

APC3645-AA = molecular target: T29, APC3645-AA; conditions: mean of both orientations
T29 chain: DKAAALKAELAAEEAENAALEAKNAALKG

4H807-AA = molecular target: T30, 4H807-AA; conditions: mean of both orientations
T30 chain: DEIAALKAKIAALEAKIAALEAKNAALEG

APC9319-AA = molecular target: T31, APC9319-AA; conditions: mean of both orientations
T31 chain: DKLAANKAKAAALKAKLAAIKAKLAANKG

APC6108-AA = molecular target: T32, APC6108-AA; conditions: mean of both orientations
T32 chain: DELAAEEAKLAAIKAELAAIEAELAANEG

APC1015-AA = molecular target: T33, APC1015-AA; conditions: mean of both orientations
T33 chain: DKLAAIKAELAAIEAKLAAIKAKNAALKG

4H2447-AA = molecular target: T34, 4H2447-AA; conditions: mean of both orientations
T34 chain: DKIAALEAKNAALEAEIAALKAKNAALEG

APC8910-AA = molecular target: T35, APC8910-AA; conditions: mean of both orientations
T35 chain: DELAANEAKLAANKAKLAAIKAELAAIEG

APC2405-AA = molecular target: T36, APC2405-AA; conditions: mean of both orientations
T36 chain: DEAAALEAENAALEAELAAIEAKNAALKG

4H2143-AA = molecular target: T37, 4H2143-AA
T37 chain: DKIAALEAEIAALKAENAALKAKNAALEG

APC4264-AA = molecular target: T38, APC4264-AA; conditions: mean of both orientations
T38 chain: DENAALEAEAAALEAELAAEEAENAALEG

APC232-AA = molecular target: T39, APC232-AA; conditions: mean of both orientations
T39 chain: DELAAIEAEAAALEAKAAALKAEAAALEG

P2-AA-1HGe-W = molecular target: T40, P2-AA-1HGe-W; conditions: mean of both orientations
T40 chain: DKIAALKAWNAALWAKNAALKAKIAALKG

Sequence of 4H_GCN4 (chain, as listed by the source): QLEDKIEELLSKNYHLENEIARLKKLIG

B1: 4H465-AA (peptide)
chain: DEIAALEAKNAALKAENAALEAEIAALEG
P2-AA
  interaction score: 1.61
GCN2_T
  interaction score: -1.97
4H535-AA
  interaction score: -1.58
P2-AA-1HGe-H
  interaction score: 1.53
P2-AA-1HGe-Q
  interaction score: 1.82
4H58-AA
  interaction score: 0.877
4H895-AA
  interaction score: -1.13
P2-AA-1HGe-D
  interaction score: 1.36
4H465-AA
  interaction score: -1.82
4H_BCR
  interaction score: -1.2
4H_APH
  interaction score: -1.84
4H_GCN4
  interaction score: -2.34
P2-AA-1HGe-A
  interaction score: 1.85
4H486-AA
  interaction score: -1.47
P2-AA-1HGe-T
  interaction score: 2.11
P2-AA-1HGe-M
  interaction score: 1.47

B2: 4H2143-AA (peptide)
chain: DKIAALEAEIAALKAENAALKAKNAALEG
APC4011-AA
  interaction score: -0.0916
4H2290-AA
  interaction score: -1.42
APC2237-AA
  interaction score: -1.56
APC5383-AA
  interaction score: -1.98
APC4436-AA
  interaction score: -1.85
4H2458-AA
  interaction score: -1.32
APC8191-AA
  interaction score: -1.3
APC1434-AA
  interaction score: -1.23
APC7099-AA
  interaction score: -1.51
4H733-AA
  interaction score: -1.41
4H2148-AA
  interaction score: -1.43
4H3330-AA
  interaction score: -0.836
APC9096-AA
  interaction score: -1.82
4H716-AA
  interaction score: -1.59
APC3645-AA
  interaction score: -1.25
4H807-AA
  interaction score: -1.57
APC9319-AA
  interaction score: -1.6
APC6108-AA
  interaction score: -1.49
APC1015-AA
  interaction score: -1.78
4H2447-AA
  interaction score: -1.64
APC8910-AA
  interaction score: -1.84
APC2405-AA
  interaction score: -1.48
4H2143-AA
  interaction score: 2.12
APC4264-AA
  interaction score: -1.81
APC232-AA
  interaction score: -2.06

B3: P1-AA-1HGe-M (peptide)
chain: DEIAALEAMNAALMAENAALEAEIAALEG
P2-AA
  interaction score: 2.14
P2-AA-1HGe-Q
  interaction score: 1.9
P2-AA-1HGe-D
  interaction score: 2.01
P2-AA-1HGe-W
  interaction score: 2.3
P2-AA-1HGe-A
  interaction score: 2.28
P2-AA-1HGe-T
  interaction score: 1.98
P2-AA-1HGe-M
  interaction score: 2.29
